Test results published in US6858428B2, “Human and animal cell culture medium containing antithrombin III for suppressing cell death” (Agency of Industrial Science and Technology, priority 1999, dated 2005).
Entries after “also recorded” stand apart in the source; their conditions may differ.

Tests used:
hepatoma cell line HepG2 = test: Survival of hepatoma cell line HepG2 in serum-free culture (viable cell count after 3 days); assay type: cell-based; details: for Survival rate: HepG2, DMEM without fetal bovine serum; for Effect in controlling cell death (in words): HepG2, serum-free medium
Protocol: Two mL cell suspension of hepatoma cell line HepG2 dispersed in trypsin (5×10^5 cells) were inoculated on six multi-well plates and pre-culture by using Dulbecco's modified Eagle medium (DMEM) containing 5% fetal bovine serum, 1.6 g/L sodium hydrogencarbonate, 0.584 g/L L-glutamine, and 0.08 g/L kanamycin sulfate at 37° C. in a 5% CO2 gas phase. […] The viable cell count was assayed after 3 days of culture.
(§1) The hepatoma cell line HepG2 was pre-cultured in the same manner as in Example 1. After 1 day, the broth was recovered, the cell surfaces were washed with serum-free medium, and the culture was continued for another 3 days with the addition of medium containing 5%, 0% fetal bovine serum, or 2 mL of fresh medium comprising antithrombin III added in concentrations ranging from 1 to 25 μg/mL to media containing no fetal bovine serum (0%). The viable cell count was assayed after 3 days of culture.
as §1, with “III or any of-various synthetic protease inhibitors given in Table 4” for “III”, “added” for “added in concentrations ranging from 1 to 25 μg/mL”

osteoblast cell line ROS = test: Survival of osteoblast cell line ROS in serum-free culture (viable cell count after 3 days); assay type: cell-based; details: ROS osteoblasts
Protocol: Two mL cell suspension of osteoblast cell line ROS dispersed in trypsin (5×10^5 cells) were inoculated on six multi-well plates and pre-cultured by using Dulbecco's modified Eagle medium (DMEM) containing 10% fetal bovine serum, 1.6 g/L sodium hydrogencarbonate, 0.584 g/L L-glutamine, and 0.08 g/L kanamycin sulfate at 37° C. in a 5% CO2 gas phase. After one day, the broth was recovered, the cell surfaces were washed with serum-free medium, and the culture was continued for another 3 days with the addition of medium containing 10%, 0% fetal bovine serum, or 2 mL of fresh medium comprising 13 μg/mL antithrombin III added to media containing no fetal bovine serum (0%). The viable cell count was assayed after 3 days of culture.

B1: Antithrombin III: Lyophilized antithrombin III purified from bovine serum (protein, UniProt P41361 33-465, looked up)
Antithrombin-III: HRSPVEDVCTAKPRDIPVNPMCIYRSSEKKATEGQGSEQKIPGATNRRVWELSKANSHFATAFYQHLADSKNNNDNIFLSPLSISTAFAMTKLGACNNTLKQLMEVFKFDTISEKTSDQIHFFFAKLNCRLYRKANKSSELVSANRLFGGKSITFNETYQDISEVVYGAKLQPLDFKGNAEQSRLTINQWISNKTEGRITDVIPPQAINEFTVLVLVNTIYFKGLWKSKFSPENTRKELFYKADGESCSVLMMYQESKFRYRRVAESTQVLELPFKGDDITMVLILPKLEKTLAKVEQELTPDMLQEWLDELTETLLVVHMPRFRIEDSFSVKEQLQDMGLEDLFSPEKSRLPGIVAEGRSDLYVSDAFHKAFLEVNEEGSEAAASTVISIAGRSLNSDRVTFKANRPILVLIREVALNTIIFMGRVANPCVD
Survival rate (hepatoma cell line HepG2; additive 1 μg/ml): 68.6% | Survival rate (hepatoma cell line HepG2; additive 2.5 μg/ml): 68.0% | Survival rate (hepatoma cell line HepG2; additive 5 μg/ml): 74.1% | Survival rate (hepatoma cell line HepG2; additive 10 μg/ml): 88.5% | Survival rate (hepatoma cell line HepG2; additive 17.5 μg/ml): 93.3% | Survival rate (hepatoma cell line HepG2; additive 25 μg/ml): 94.0% | Effect in controlling cell death (in words) (hepatoma cell line HepG2; additive 1 μg/mL): cell death was suppressed | Effect in controlling cell death (in words) (hepatoma cell line HepG2; additive 2.5 μg/mL (so in the source)): virtually the same survival rate as a serum concentration of 5% | Effect in controlling cell death (in words) (hepatoma cell line HepG2; additive 25 μg/mL): highly effective in controlling cell death | Effect in controlling cell death (in words) (hepatoma cell line HepG2; concentration not given): virtually the same survival rate as that of the medium with a 5% serum concentration; also recorded: considerably effective in controlling cell death | Survival rate (osteoblast cell line ROS; DMEM without fetal bovine serum, additive 13 μg/ml): 85.5% | Effect in controlling cell death (in words) (osteoblast cell line ROS; serum-free medium, additive 13 μg/mL): considerably effective in controlling cell death

B2: EGF: growth factor reported as survival factor (protein, UniProt P01133 23-1207, looked up)
Pro-epidermal growth factor: PQHWSCPEGTLAGNGNSTCVGPAPFLIFSHGNSIFRIDTEGTNYEQLVVDAGVSVIMDFHYNEKRIYWVDLERQLLQRVFLNGSRQERVCNIEKNVSGMAINWINEEVIWSNQQEGIITVTDMKGNNSHILLSALKYPANVAVDPVERFIFWSSEVAGSLYRADLDGVGVKALLETSEKITAVSLDVLDKRLFWIQYNREGSNSLICSCDYDGGSVHISKHPTQHNLFAMSLFGDRIFYSTWKMKTIWIANKHTGKDMVRINLHSSFVPLGELKVVHPLAQPKAEDDTWEPEQKLCKLRKGNCSSTVCGQDLQSHLCMCAEGYALSRDRKYCEDVNECAFWNHGCTLGCKNTPGSYYCTCPVGFVLLPDGKRCHQLVSCPRNVSECSHDCVLTSEGPLCFCPEGSVLERDGKTCSGCSSPDNGGCSQLCVPLSPVSWECDCFPGYDLQLDEKSCAASGPQPFLLFANSQDIRHMHFDGTDYGTLLSQQMGMVYALDHDPVENKIYFAHTALKWIERANMDGSQRERLIEEGVDVPEGLAVDWIGRRFYWTDRGKSLIGRSDLNGKRSKIITKENISQPRGIAVHPMAKRLFWTDTGINPRIESSSLQGLGRLVIASSDLIWPSGITIDFLTDKLYWCDAKQSVIEMANLDGSKRRRLTQNDVGHPFAVAVFEDYVWFSDWAMPSVMRVNKRTGKDRVRLQGSMLKPSSLVVVHPLAKPGADPCLYQNGGCEHICKKRLGTAWCSCREGFMKASDGKTCLALDGHQLLAGGEVDLKNQVTPLDILSKTRVSEDNITESQHMLVAEIMVSDQDDCAPVGCSMYARCISEGEDATCQCLKGFAGDGKLCSDIDECEMGVPVCPPASSKCINTEGGYVCRCSEGYQGDGIHCLDIDECQLGEHSCGENASCTNTEGGYTCMCAGRLSEPGLICPDSTPPPHLREDDHHYSVRNSDSECPLSHDGYCLHDGVCMYIEALDKYACNCVVGYIGERCQYRDLKWWELRHAGHGQQQKVIVVAVCVVVLVMLLLLSLWGAHYYRTQKLLSKNPKNPYEESSRDVRSRRPADTEDGMSSCPQPWFVVIKEHQDLKNGGQPVAGEDGQAADGSMQPTSWRQEPQLCGMGTEQGCWIPVSSDKGSCPQVMERSFHMPSYGTQTLEGGVEKPHSLLSANPLWQQRALDPPHQMELTQ
modifications: Pro-epidermal growth factor
Survival rate (hepatoma cell line HepG2; additive 50 ng/ml): 54.7%
